Measured values taken from patent publication US20230203461A1, “BETA-ETHERASES FOR LIGNIN DEPOLYMERISATION” (The University of York, priority 2020, published 2023).

Key:
β-etherase = test: Phenol oxidase assay (substrate specificity) with β-etherase; assay type: biochemical, P. putredinis NO1; conditions: 1 mM substrate, 50 mM Tris pH 8.5, room temperature
Procedure: Specificity was investigated by incubating 1 mM of each substrate of interest with the enzyme in 100 µL Tris pH 8.5 buffer at room temperature. Activity was determined by monitoring the change in Ultraviolet-Visible absorbance spectra (220 - 750 nm) of aliquots using a NanoDrop 8000 Microvolume UV-Vis spectrophotometer (Thermo Scientific). Scans were performed at regular intervals over 2 h.

tyrosinase = conditions: literature statement; cited from earlier work
[1] = Saccharification after β-etherase pretreatment, wheat straw (HPAEC); assay type: biochemical; conditions: 16 h β-etherase pretreatment, then commercial cellulases
Procedure: (§1) For saccharification reactions, biomass pretreated with β-etherase was incubated with 1.2 µg/mL enzyme cocktail (4:1 Celluclast: novo 188 (Novozymes)) in 50 mM sodium acetate at pH 4.5 and incubated overnight at 37-40° C. with shaking. This was performed alongside a control reaction with buffer only. Solids were removed by centrifugation, and residual protein was precipitated with 80% ethanol. The supernatant, containing mono- and oligosaccharides, was dried with a centrifugal evaporator before samples were resuspended in ultra-pure water and filtered through a 0.2 µm polytetrafluoroethylene (PTFE) filter. Five replicates from each sample were investigated, and carbohydrate composition was analyzed by high-performance anion-exchange chromatography (HPAEC).
(§2) High-performance anion-exchange chromatography was used to analyze monosaccharide release after saccharification. Briefly, 5 µL of samples or standards were injected on a CarboPac PA20 3 × 150 mm analytical column via a CarboPac PA20 3×0 mm guard column using Chromeleon 6.8 Chromatography Data Systems software (Dionex). […] Carbohydrates were detected by ICS-3000 PAD system with an electrochemical gold electrode, identified by comparison with retention times of external standards (arabinose, fucose, galactose, glucose, glucuronic acid, mannose, rhamnose, and xylose) and quantified through the integration of these known standards.

[2] = Release of products from sugarcane bagasse (HPLC); assay type: biochemical; conditions: 16 h, pH 8.5, 30° C.
[3] = Saccharification after β-etherase pretreatment, rice straw (HPAEC); assay type: biochemical; conditions: 16 h β-etherase pretreatment, then commercial cellulases
Procedure: as §1, §2

[4] = Release of products from rice straw (HPLC); assay type: biochemical; conditions: 16 h, pH 8.5, 30° C.
[5] = Fluorescence assay for β-etherase (4MU release from GGβ4MU); assay type: biochemical
Procedure: Enzyme activity was measured in 1 mL reaction containing 10 µL 4MU/GGβ4MU (synthetic fluorescent substrate 10 mM) and appropriate concentration of pure protein in 50 mM Tris-HCI, 100 mM NaCl, pH 8.5, 5 mM CuSO4. The reaction was incubated at 30° C. for 1 h. Formation of 4-methylumbelliferone (4MU) was monitored using an RF-1500 fluorometric analyzer. After 0 h and 1 h of incubation 100 µL of the reaction mixture was taken and added to 50 µL of 100 mM glycine-NaOH buffer (pH 10.0). One unit of the enzyme was defined as the amount that released 1 nmol of 4 MU/h from the substrate. Five replicate were taken for each sample, and control reactions of boiled enzyme and wheat straw treated with buffer only were also performed.
The effect of pH and temperature on enzyme activity was investigated by varying the pH of the reaction mixtures using 50 mM Tris-HCI buffer from pH 7.0 to 9.5, 50 mM glycine-NaOH buffer at pH range 9.0 to 10.5 and 50 mM Na2HPO4-NaOH buffer at pH range 10.5 to 12. The optimum temperature of enzyme activity was determined at various temperatures ranging from 20° C. to 70° C. Assays were performed as described in the previous section.

[6] = Release of tricin and lignin units from wheat straw (HPLC); assay type: biochemical; conditions: 16 h, pH 8.5, 30° C.
Procedure: Wheat straw was ground to <1 mm using a cyclone mill (Retsch) and washed several times with 50 mM Tris pH 8 to remove residual surface sugars. […] Reactions were incubated overnight at 30° C. with shaking. Control reactions were performed using wheat straw incubated with boiled β-etherase or with buffer only. Tricin was extracted based upon Karambelkar.^70 Briefly, 1 mL of ethyl acetate was added to 100 µL of the reaction supernatant. This was homogenized before being centrifuged for 5 min at 13,000 rpm. The ethyl acetate layer was transferred into new tubes and evaporated using a centrifugal evaporator at 55° C. before being resuspended in 100 µL 50% H2O, 50% acetonitrile. This was analyzed with a Waters 2996 photodiode array detector Separations Module HPLC system, column used was C18-5 µM preparative column (4.6 × 250 mm, Waters, X-Bridge, Made in Ireland). The mobile phase was 0.1% acetic acid in water (A), and methanol (B) and a linear gradient was used; 95% A (5 min), 70% A (25 min), 0% A (30 min), 95% A (5 min), the flow rate was 1.0 mL/min. After identification through comparisons with authentic standards, based on retention time and UV spectrum, peaks were manually collected and the mass confirmed with mass spectroscopy.

[7] = Saccharification after β-etherase pretreatment, sugarcane bagasse (HPAEC); assay type: biochemical; conditions: 16 h β-etherase pretreatment, then commercial cellulases
Procedure: as §1
High-performance anion-exchange chromatography was used to analyze monosaccharide release after saccharification. Briefly, 5 µL of samples or standards were injected on a CarboPac PA20 3 × 150 mm analytical column via a CarboPac PA20 3×0 mm guard column using Chromeleon 6.8 Chromatography Data Systems software (Dionex). Sugars were separated at a flow rate of 0.4-0.5 mL min^-1 at a temperature of 25° C. as follows: after equilibration of the column with 100% H2O, samples were separated in a linear gradient of 100% H2O to 99%-1% of H2O-0.2 M NaOH for 5 min, then constant for 10 min, followed by a linear gradient to 47.5%-22.5%-30% of H2O-0.2 M NaOH-0.5 M NaOAc/0.1 M NaOH in 7 min and then kept constant for 15 min. After washing the column with 0.2 M NaOH for 8 min it was re-equilibrated with 100% H2O for 10 min before the injection of the next sample. Carbohydrates were detected by ICS-3000 PAD system with an electrochemical gold electrode, identified by comparison with retention times of external standards (arabinose, fucose, galactose, glucose, glucuronic acid, mannose, rhamnose, and xylose) and quantified through the integration of these known standards.

[8] = 2D HSQC NMR of enzyme lignins from treated wheat; conditions: HSQC volume-integrals, S + G + H = 100% basis; control nearly 12%
Procedure: Enzyme lignins, representing essentially all of the lignin in the sample, were prepared following ball-milling of the cell wall isolate as previously described.(75-77, 78)
2D NMR of enzyme lignins (EL) in 4:1 v/v DMSO-d6:pyridine-d5 were acquired on a Bruker Biospin (Billerica, MA) Avance 700 MHz spectrometer equipped with a 5-mm QCI ^1H/^31P/^13 C/^15 N QCI cryoprobe with inverse geometry (proton coils closest to the sample), as described previously.(76,77) Volume-integration of contours in HSQC plots used TopSpin 4.07 (Mac version) software, and no correction factors were used. The data represent volume-integrals only, and data are presented on an S + G + H = 100% basis (FIG. 17); pCA, and tricin T units are always terminal and are, therefore, likely overestimated.(77) Data assignments here were made by comparison with published data from other samples from our lab, including in the various tricin-related papers.(71-74, 79, 80)

[9] = purification step: Culture filrate
[10] = purification step: Q (anion-exchange)
[11] = purification step: S.E (size-exclusion)

N[C@@H](Cc1ccc(O)c(O)c1)C(=O)O [L-Dopa, 3,4-dihydroxy-L-phenylalanine]
activity of the β-etherase against the substrate (β-etherase): did not display activity

O=C(O)/C=C/c1ccc(O)cc1 [p-coumaric acid]
type of tyrosinase inhibition (tyrosinase): mixed-type inhibition effect

COc1cc(C(=O)O)ccc1O [Vanillic acid]
tyrosinase inhibition (tyrosinase): known to be tyrosinase inhibitors
activity of the β-etherase against the substrate (β-etherase): showed activity

O=C(O)c1ccc(O)cc1 [4-Hydroxybenzoic acid]
tyrosinase inhibition (tyrosinase): known to be tyrosinase inhibitors
activity of the β-etherase against the substrate (β-etherase): showed activity

O=c1c(O)c(-c2ccc(O)c(O)c2)oc2cc(O)cc(O)c12 [Quercetin]
tyrosinase inhibition (tyrosinase): known to be tyrosinase inhibitors
activity of the β-etherase against the substrate (β-etherase): showed activity

COc1cc(-c2cc(=O)c3c(O)cc(O)cc3o2)cc(OC)c1O [Tricin, 5,7-dihydroxy-2-(4-hydroxy-3,5-dimethoxyphenyl)-4H-chromen-4-one]
type of tyrosinase inhibition (tyrosinase): binds non-competitively

N[C@@H](Cc1ccc(O)cc1)C(=O)O [L-tyrosine]
activity of the β-etherase against the substrate (β-etherase): did not display activity

B1: β-etherase: copper-containing extracellular β-etherase of Parascedosporium putredinis NO1 (c2092), independent of NAD+ and glutathione, expressed recombinantly in E. coli (protein, listed as Parascedosporium putredinis)
chain: MPSAKRLLGLLLAATAAVGVAAQEPALTEDDFSIPEIEGGDALAQLAQLAADSSQETALRMAKRGLNSGCSPSQIKVRREWRTLTSAQRKQYIASVKCLQTKPSFFDPNIIPAAKSLFDDFVGVHVFQTGSIHLTATFLTWHRYFVYTYETKLREECGYTGPLPYWEWGLDVNNPNASPVFDGSDTSLSGNGAFFAHEGIQMVQPINGNILKLPPGNGGGCVTKGPFKDMKVHFGTIILPVYGQPILSGVENPIADNERCLKRDLNAGIAKRFTSFLNSTSVILKNNNIEMFQAHLQGDDRYVLNQLGVHGGGHYTIGGDPGGDPFISPGDPAFYLHHAQIDRIYWIWQMLDFKNRQGVHGTATLQNNPPSANVTVEDTIDLSPLAPPVKIKDLMNTVGGSPLCYIYL
increase in glucose release after saccharification [1]: 1.2 fold
p-coumaric acid release from sugarcane bagasse [2]: significantly enriched
tricin released from sugarcane bagasse compared to wheat straw [2]: smaller amount of tricin was released
improvement in saccharification [3]: no improvement in saccharification
product release from rice straw [4]: little difference in product release
temperature of maximum activity ([5]; GGβ4MU assay, 20° C. to 70° C. tested): 60 °C
pH of maximum activity ([5]; GGβ4MU assay, pH 7.0 to 12 tested): 10
Activity (mU) (nmol/mg/hr) [5, 9]: 7500 mU
Specific (U/mg) [5, 9]: 7.32 U/mg
Activity (mU) (nmol/mg/hr) [5, 10]: 2600 mU
Specific (U/mg) [5, 10]: 88 U/mg
Activity (mU) (nmol/mg/hr) [5, 11]: 1950 mU
Specific (U/mg) [5, 11]: 139 U/mg
β-etherase activity (fluorescence released after incubation with GGβ4MU) ([5]; recombinant purified protein from E. coli): confirmed
p-coumaric acid, vanillin and p-hydroxybenzaldehyde in reaction supernatant of wheat straw [6]: not enriched
tricin in reaction supernatant of wheat straw vs buffer alone [6]: significantly higher concentration of tricin
increase in arabinose after saccharification vs untreated control [7]: 23 fold
increase in glucose after saccharification vs untreated control [7]: 2 fold
increase in xylose after saccharification vs untreated control [7]: 5 fold
relative tricin ether level in the lignin after treatment [8]: about 8.5%
